Measured values: patent US20150132305A1
No end group written: not given here.

T1: human Cadherin-11 on cells (Cad-11-expressing 431-D-11 cells; human fibroblast-like synoviocytes) (human) (UniProt P55287)
T1 sequence: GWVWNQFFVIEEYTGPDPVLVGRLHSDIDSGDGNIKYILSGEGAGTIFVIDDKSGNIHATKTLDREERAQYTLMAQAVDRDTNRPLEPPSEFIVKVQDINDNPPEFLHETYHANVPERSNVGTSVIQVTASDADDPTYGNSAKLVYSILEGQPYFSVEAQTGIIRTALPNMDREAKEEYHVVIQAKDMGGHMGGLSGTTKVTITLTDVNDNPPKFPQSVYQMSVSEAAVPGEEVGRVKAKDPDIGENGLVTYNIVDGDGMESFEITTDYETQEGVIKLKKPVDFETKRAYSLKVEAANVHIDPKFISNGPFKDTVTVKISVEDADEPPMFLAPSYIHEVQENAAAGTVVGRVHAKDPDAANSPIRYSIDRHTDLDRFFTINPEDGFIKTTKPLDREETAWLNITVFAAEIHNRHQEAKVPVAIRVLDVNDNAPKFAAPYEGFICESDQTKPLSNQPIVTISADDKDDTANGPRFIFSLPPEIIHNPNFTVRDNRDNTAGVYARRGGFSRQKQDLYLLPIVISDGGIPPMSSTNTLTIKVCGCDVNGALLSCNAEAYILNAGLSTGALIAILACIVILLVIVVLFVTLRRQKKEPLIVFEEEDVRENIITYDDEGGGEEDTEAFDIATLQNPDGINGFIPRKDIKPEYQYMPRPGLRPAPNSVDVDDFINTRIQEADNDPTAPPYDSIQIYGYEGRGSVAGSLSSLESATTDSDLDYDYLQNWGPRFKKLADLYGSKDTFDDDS

T2: Cad-11 37-mer peptide linked to BSA (encompasses the Cad-11 immunogen) (human)
T2 sequence (peptide, linked to BSA): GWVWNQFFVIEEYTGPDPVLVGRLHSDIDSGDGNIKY


Assays:
[1] = target: T1, human Cadherin-11 on cells (Cad-11-expressing 431-D-11 cells; human fibroblast-like synoviocytes) (human); assay: cell-based or functional assay
[2] = target: T2, Cad-11 37-mer peptide linked to BSA (encompasses the Cad-11 immunogen) (human); assay: ELISA, BSA-coupled 37-mer cadherin peptide coated at 500 ng/ml, A450
[3] = target: T2, Cad-11 37-mer peptide linked to BSA (encompasses the Cad-11 immunogen) (human); assay: ELISA on BSA-coupled 37-mer peptides, 500 ng/ml coat
[4] = target: SDP051 humanized anti-Cad-11 EC1 antibody (Vκ1/VH5); assay: flow cytometry blocking assay: peptide titrated with SDP 051 at 0.5 ug/ml on Cad-11 expressing 431D cells; blocked: binding of SDP051 to cell-surface Cad-11; MFI

Row | Binder | EC50 (read off the curve) [2] | further results
1 | Cad-11-EC1-5-Fc fusion protein (5 extracellular domains of Cad-11 fused to the human IgG2 hinge, CH2 and CH3 domains) (Fc fusion, not shown: a dimerising Fc or GST) GWVWNQFFVIEEYTGPDPVLVGRLHSDIDSGDGNIKYILSGEGAGTIFVIDDKSGNIHATKTLDREERAQYTLMAQAVDRDTNRPLEPPSEFIVKVQDINDNPPEFLHETYHANVPERSNVGTSVIQVTASDADDPTYGNSAKLVYSILEGQPYFSVEAQTGIIRTALPNMDREAKEEYHVVIQAKDMGGHMGGLSGTTKVTITLTDVNDNPPKFPQSVYQMSVSEAAVPGEEVGRVKAKDPDIGENGLVTYNIVDGDGMESFEITTDYETQEGVIKLKKPVDFETKRAYSLKVEAANVHIDPKFISNGPFKDTVTVKISVEDADEPPMFLAPSYIHEVQENAAAGTVVGRVHAKDPDAANSPIRYSIDRHTDLDRFFTINPEDGFIKTTKPLDREETAWLNITVFAAEIHNRHQEAKVPVAIRVLDVNDNAPKFAAPYEGFICESDQTKPLSNQPIVTISADDKDDTANGPRFIFSLPPEIIHNPNFTVRDNRDNTAGVYARRGGFSRQKQDLYLLPIVISDGGIPPMSSTNTLTIKVCGCDVNGALLSCNAEAYILNAGLST | – | Cad-11 mediated cell aggregation [1]: 100 µg/mL
2 | SDP061 humanized anti-Cad-11 EC1 antibody (Vκ2/VH1) (antibody, IgG4, V domains shown) VH: EVQLVQSGPELKKPGASVKISCKASGYSFTGYFMNWVKQAHGQGLEWIGRINPYTGDTFYNQKFKGRATLTVDKSSSTAYMELVSLSSEDSAVYYCGRLGSRYWYFDVWGQGTTVTVSS VL: DVLMTQTPLSSPVTLGQPASISCRSSQSIIHSNGNTYLEWYLQKPGQSPQLLIYKVSNRFSGVPDRFSGSGSGTDFTLKISRVEAEDVGVYYCFQGSHVPWTFGQGTKLEIK | 0.05 µg/mL | fold greater binding to the Cad-11 antigen than to the related antigens from the other cadherins [3]: > 20 fold
3 | SDP141 humanized anti-Cad-11 EC1 antibody (Vκ3/VH4) (antibody, IgG4, V domains shown) VH: EVQLVQSGAEVKKPGASVKVSCKASGYSFTGYFMNWVRQAPGQGLEWIGRINPYTGDTFYNQKFKGRATITVDKSTSTAYMELSSLRSEDTAVYYCGRLGSRYWYFDVWGQGTTVTVSS VL: DVVMTQTPLSSPVTLGQPASISCRSSQSIIHSNGNTYLEWYLQKPGQSPQLLIYKVSNRFSGVPDRFSGSGSGTDFTLKISRVEAEDVGVYYCFQGSHVPWTFGQGTKLEIK | 0.06 µg/mL | –
4 | SDP021 humanized anti-Cad-11 EC1 antibody (Vκ1/VH2) (antibody, IgG4, V domains shown) VH: EVQLVQSGAEVKKPGASVKISCKASGYSFTGYFMNWVKQAPGQGLEWIGRINPYTGDTFYNQKFKGRATLTVDKSTSTAYMELSSLRSEDTAVYYCGRLGSRYWYFDVWGQGTTVTVSS VL: DVLMTQTPLSSPVTLGQPASISCRSSQSIIHSNGNTYLEWYLQKPGQSPQLLIYKVSNRFSGVPDRFTGSGSGTDFTLKISRVEAEDVGVYYCFQGSHVPWTFGQGTKLEIK | 0.06 µg/mL | –
5 | SDP011 humanized anti-Cad-11 EC1 antibody (Vκ1/VH1) (antibody, IgG4, V domains shown) VH: EVQLVQSGPELKKPGASVKISCKASGYSFTGYFMNWVKQAHGQGLEWIGRINPYTGDTFYNQKFKGRATLTVDKSSSTAYMELVSLSSEDSAVYYCGRLGSRYWYFDVWGQGTTVTVSS VL: DVLMTQTPLSSPVTLGQPASISCRSSQSIIHSNGNTYLEWYLQKPGQSPQLLIYKVSNRFSGVPDRFTGSGSGTDFTLKISRVEAEDVGVYYCFQGSHVPWTFGQGTKLEIK | 0.07 µg/mL | –
6 | SDP041 humanized anti-Cad-11 EC1 antibody (Vκ1/VH4) (antibody, IgG4, V domains shown) VH: EVQLVQSGAEVKKPGASVKVSCKASGYSFTGYFMNWVRQAPGQGLEWIGRINPYTGDTFYNQKFKGRATITVDKSTSTAYMELSSLRSEDTAVYYCGRLGSRYWYFDVWGQGTTVTVSS VL: DVLMTQTPLSSPVTLGQPASISCRSSQSIIHSNGNTYLEWYLQKPGQSPQLLIYKVSNRFSGVPDRFTGSGSGTDFTLKISRVEAEDVGVYYCFQGSHVPWTFGQGTKLEIK | 0.06 µg/mL | –
7 | SDP151 humanized anti-Cad-11 EC1 antibody (Vκ3/VH5) (antibody, IgG4, V domains shown) VH: EVQLVQSGAEVKKPGASVKVSCKASGYSFTGYFMNWVRQAPGQGLEWIGRINPYTGDTFYNQKFKGRVTITVDKSTSTAYMELSSLRSEDTAVYYCGRLGSRYWYFDVWGQGTTVTVSS VL: DVVMTQTPLSSPVTLGQPASISCRSSQSIIHSNGNTYLEWYLQKPGQSPQLLIYKVSNRFSGVPDRFSGSGSGTDFTLKISRVEAEDVGVYYCFQGSHVPWTFGQGTKLEIK | 0.06 µg/mL | –
8 | SDP071 humanized anti-Cad-11 EC1 antibody (Vκ2/VH2) (antibody, IgG4, V domains shown) VH: EVQLVQSGAEVKKPGASVKISCKASGYSFTGYFMNWVKQAPGQGLEWIGRINPYTGDTFYNQKFKGRATLTVDKSTSTAYMELSSLRSEDTAVYYCGRLGSRYWYFDVWGQGTTVTVSS VL: DVLMTQTPLSSPVTLGQPASISCRSSQSIIHSNGNTYLEWYLQKPGQSPQLLIYKVSNRFSGVPDRFSGSGSGTDFTLKISRVEAEDVGVYYCFQGSHVPWTFGQGTKLEIK | – | fold greater binding to the Cad-11 antigen than to the related antigens from the other cadherins [3]: > 20 fold
9 | GWVWNQFFVIEEYTGPDPVLVGRLHSDIDSGDGNIKY (also: linked to BSA) [Cad-11 37-mer peptide linked to BSA (encompasses the Cad-11 immunogen)] | – | IC50 (read off the curve) [4]: 0.2 µg/mL
10 | human Cad-11-EC1-hIgG2-Fc1 fusion protein (Fc fusion) FAPERRGHLRPSFHGHHEKGKEGQVLQRSKRGWVWNQFFVIEEYTGPDPVLVGRLHSDIDSGDGNIKYILSGEGAGTIFVIDDKSGNIHATKTLDREERAQYTLMAQAVDRDTNRPLEPPSEFIVKVQRSVECPPCPAPPVAGPSVFLFPPKPKDTLMISRTPEVTCVVVDVSHEDPEVQFNWYVDGMEVHNAKTKPREEQFNSTFRVVSVLTVVHQDWLNGKEYKCKVSNKGLPAPIEKTISKTKGQPREPQVYTLPPSREEMTKNQVSLTCLVKGFYPSDIAVEWESNGQPENNYKTTPPMLDSDGSFFLYSKLTVDKSRWQQGNVFSCSVMHEALHNHYTQKSLSLSPGKVPRLA | – | Cad-11 mediated cell aggregation [1]: 3 µg/mL

The next lines start with results.

Row | EC50 (read off the curve) [2] | Binder | further results
11 | 0.07 µg/mL | SDP081 humanized anti-Cad-11 EC1 antibody (Vκ2/VH3) (antibody, IgG4, V domains shown) VH: EVQLVQSGAEVKKPGASVKISCKASGYSFTGYFMNWVRQAPGQGLEWIGRINPYTGDTFYNQKFKGRATLTVDKSTSTAYMELSSLRSEDTAVYYCGRLGSRYWYFDVWGQGTTVTVSS VL: DVLMTQTPLSSPVTLGQPASISCRSSQSIIHSNGNTYLEWYLQKPGQSPQLLIYKVSNRFSGVPDRFSGSGSGTDFTLKISRVEAEDVGVYYCFQGSHVPWTFGQGTKLEIK | –
12 | 0.07 µg/mL | SDP091 humanized anti-Cad-11 EC1 antibody (Vκ2/VH4) (antibody, IgG4, V domains shown) VH: EVQLVQSGAEVKKPGASVKVSCKASGYSFTGYFMNWVRQAPGQGLEWIGRINPYTGDTFYNQKFKGRATITVDKSTSTAYMELSSLRSEDTAVYYCGRLGSRYWYFDVWGQGTTVTVSS VL: DVLMTQTPLSSPVTLGQPASISCRSSQSIIHSNGNTYLEWYLQKPGQSPQLLIYKVSNRFSGVPDRFSGSGSGTDFTLKISRVEAEDVGVYYCFQGSHVPWTFGQGTKLEIK | –
13 | 0.05 µg/mL | SDP121 humanized anti-Cad-11 EC1 antibody (Vκ3/VH2) (antibody, IgG4, V domains shown) VH: EVQLVQSGAEVKKPGASVKISCKASGYSFTGYFMNWVKQAPGQGLEWIGRINPYTGDTFYNQKFKGRATLTVDKSTSTAYMELSSLRSEDTAVYYCGRLGSRYWYFDVWGQGTTVTVSS VL: DVVMTQTPLSSPVTLGQPASISCRSSQSIIHSNGNTYLEWYLQKPGQSPQLLIYKVSNRFSGVPDRFSGSGSGTDFTLKISRVEAEDVGVYYCFQGSHVPWTFGQGTKLEIK | –
14 | 0.07 µg/mL | SDP111 humanized anti-Cad-11 EC1 antibody (Vκ3/VH1) (antibody, IgG4, V domains shown) VH: EVQLVQSGPELKKPGASVKISCKASGYSFTGYFMNWVKQAHGQGLEWIGRINPYTGDTFYNQKFKGRATLTVDKSSSTAYMELVSLSSEDSAVYYCGRLGSRYWYFDVWGQGTTVTVSS VL: DVVMTQTPLSSPVTLGQPASISCRSSQSIIHSNGNTYLEWYLQKPGQSPQLLIYKVSNRFSGVPDRFSGSGSGTDFTLKISRVEAEDVGVYYCFQGSHVPWTFGQGTKLEIK | –
15 | 0.07 µg/mL | SDP131 humanized anti-Cad-11 EC1 antibody (Vκ3/VH3) (antibody, IgG4, V domains shown) VH: EVQLVQSGAEVKKPGASVKISCKASGYSFTGYFMNWVRQAPGQGLEWIGRINPYTGDTFYNQKFKGRATLTVDKSTSTAYMELSSLRSEDTAVYYCGRLGSRYWYFDVWGQGTTVTVSS VL: DVVMTQTPLSSPVTLGQPASISCRSSQSIIHSNGNTYLEWYLQKPGQSPQLLIYKVSNRFSGVPDRFSGSGSGTDFTLKISRVEAEDVGVYYCFQGSHVPWTFGQGTKLEIK | –
16 | 0.06 µg/mL | SDP031 humanized anti-Cad-11 EC1 antibody (Vκ1/VH3) (antibody, IgG4, V domains shown) VH: EVQLVQSGAEVKKPGASVKISCKASGYSFTGYFMNWVRQAPGQGLEWIGRINPYTGDTFYNQKFKGRATLTVDKSTSTAYMELSSLRSEDTAVYYCGRLGSRYWYFDVWGQGTTVTVSS VL: DVLMTQTPLSSPVTLGQPASISCRSSQSIIHSNGNTYLEWYLQKPGQSPQLLIYKVSNRFSGVPDRFTGSGSGTDFTLKISRVEAEDVGVYYCFQGSHVPWTFGQGTKLEIK | fold greater binding to the Cad-11 antigen than to the related antigens from the other cadherins [3]: > 20 fold
